Reference: patent US9127040B2, “Regulation of sodium channels by PLUNC proteins” (The University of North Carolina at Chapel Hill, priority 2011, dated 2015)

Target: T1, αβγENaC (Rattus norvegicus, UniProt P37089+P37090+P37091, S518C)
T1 construct: expressed in transfected cells; host or cells: Xenopus laevis oocytes (cRNA injection)
T1 sequence (P37089 1-698): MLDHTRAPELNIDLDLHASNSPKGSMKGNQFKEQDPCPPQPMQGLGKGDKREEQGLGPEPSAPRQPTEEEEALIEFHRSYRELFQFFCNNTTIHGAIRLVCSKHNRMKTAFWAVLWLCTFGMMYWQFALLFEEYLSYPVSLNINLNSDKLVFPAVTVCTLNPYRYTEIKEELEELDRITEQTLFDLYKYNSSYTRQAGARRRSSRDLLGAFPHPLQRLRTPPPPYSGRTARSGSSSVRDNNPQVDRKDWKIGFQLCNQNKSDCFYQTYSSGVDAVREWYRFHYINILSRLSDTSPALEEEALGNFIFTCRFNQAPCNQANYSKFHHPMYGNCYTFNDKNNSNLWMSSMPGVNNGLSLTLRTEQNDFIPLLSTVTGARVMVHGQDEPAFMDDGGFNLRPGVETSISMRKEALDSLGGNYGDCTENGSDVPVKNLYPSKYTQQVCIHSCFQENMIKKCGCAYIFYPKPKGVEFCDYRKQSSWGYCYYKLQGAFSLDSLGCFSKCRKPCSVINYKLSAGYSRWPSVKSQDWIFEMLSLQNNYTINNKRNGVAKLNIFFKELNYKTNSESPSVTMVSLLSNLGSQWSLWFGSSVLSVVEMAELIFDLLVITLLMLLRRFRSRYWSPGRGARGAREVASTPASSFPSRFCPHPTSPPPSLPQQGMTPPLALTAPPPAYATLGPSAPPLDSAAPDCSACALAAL
T1 sequence (P37090 1-638 S518C): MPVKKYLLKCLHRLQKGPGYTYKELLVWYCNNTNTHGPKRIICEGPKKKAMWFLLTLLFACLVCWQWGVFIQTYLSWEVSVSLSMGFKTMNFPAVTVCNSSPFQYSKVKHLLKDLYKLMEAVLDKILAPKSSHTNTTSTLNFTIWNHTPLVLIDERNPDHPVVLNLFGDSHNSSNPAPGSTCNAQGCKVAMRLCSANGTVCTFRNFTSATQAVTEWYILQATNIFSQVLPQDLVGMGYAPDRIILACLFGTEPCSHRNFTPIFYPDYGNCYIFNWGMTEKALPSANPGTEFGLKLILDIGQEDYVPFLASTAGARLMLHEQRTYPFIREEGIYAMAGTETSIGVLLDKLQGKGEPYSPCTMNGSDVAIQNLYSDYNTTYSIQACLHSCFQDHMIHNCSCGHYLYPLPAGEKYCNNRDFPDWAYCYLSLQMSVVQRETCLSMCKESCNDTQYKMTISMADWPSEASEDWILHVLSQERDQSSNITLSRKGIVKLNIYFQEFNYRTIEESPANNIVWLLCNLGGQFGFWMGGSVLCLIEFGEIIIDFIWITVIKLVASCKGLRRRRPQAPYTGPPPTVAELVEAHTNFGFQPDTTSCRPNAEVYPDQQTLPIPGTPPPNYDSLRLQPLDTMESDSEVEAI
T1 sequence (P37091 1-650): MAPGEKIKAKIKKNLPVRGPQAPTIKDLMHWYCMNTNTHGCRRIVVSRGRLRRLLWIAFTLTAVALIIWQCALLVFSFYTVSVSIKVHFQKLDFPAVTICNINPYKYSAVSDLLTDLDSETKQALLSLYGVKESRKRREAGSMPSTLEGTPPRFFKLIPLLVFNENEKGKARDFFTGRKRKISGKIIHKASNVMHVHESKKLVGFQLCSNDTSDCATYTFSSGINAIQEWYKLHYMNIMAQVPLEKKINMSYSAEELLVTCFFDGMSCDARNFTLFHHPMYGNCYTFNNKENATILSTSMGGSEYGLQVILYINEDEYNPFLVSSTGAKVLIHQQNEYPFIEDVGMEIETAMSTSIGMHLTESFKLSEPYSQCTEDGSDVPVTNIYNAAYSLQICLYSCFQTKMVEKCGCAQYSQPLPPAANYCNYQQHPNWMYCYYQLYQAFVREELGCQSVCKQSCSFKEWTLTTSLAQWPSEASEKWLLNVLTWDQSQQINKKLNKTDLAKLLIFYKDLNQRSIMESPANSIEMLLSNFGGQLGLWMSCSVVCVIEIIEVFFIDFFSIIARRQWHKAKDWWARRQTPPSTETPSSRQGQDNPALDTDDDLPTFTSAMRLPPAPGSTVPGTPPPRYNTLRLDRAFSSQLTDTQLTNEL
Experiment: Amiloride-sensitive whole cell current, two electrode voltage clamp, Xenopus laevis oocytes expressing αβγENaC
Type: cell-based
Conditions: Po increased to 1.0 by MTSET; SPLUNC1 coexpressed

B1: SPLUNC1: human SPLUNC1 (SEQ ID NO:1), 256 amino acid secreted PLUNC family protein; rSPLUNC1 is the purified V5/6His-tagged recombinant form (protein, listed as Homo sapiens)
chain: MFQTGGLIVFYGLLAQTMAQFGGLPVPLDQTLPLNVNPALPLSPTGLAGSLTNALSNGLLSGGLLGILENLPLLDILKPGGGTSGGLLGGLLGKVTSVIPGLNNIIDIKVTDPQLLELGLVQSPDGHRLYVTIPLGIKLQVNTPLVGASLLRLAVKLDITAEILAVRDKQERIHLVLGDCTHSPGSLQISLLDGLGPLPIQGLLDSLTGILNKVLPELVQGNVCPLVNEVLRGLDITLVHDIVNMLIHGLQFVIKV
modifications: V5/6His tag in recombinant form
notes: rSPLUNC1 is the purified V5/6His-tagged recombinant form
  overall current of ENaC containing βS518C mutant after MTSET: still reduced
